This assay deals with STAT3 (protein used in the ELISA) (UniProt P42227). Briefly: ELISA; documented protocol (ref. 44); which protein was coated and the conditions are not told.

The term Kd denotes the equilibrium constant for the complex coming apart.

For the substance “Becn1 (protein used in the ELISA) (from UniProt O88597 1-448) (natural protein)”, the dissociation constant Kd is 120 nM.

For the origin of these results see paper PMC11785930.
